The results in this text go back to US20030186329A1 (Scripps Research, published 2003).

acyl = not defined here

Test [1] has as its target tissue plasminogen activator (t-PA) (human, UniProt P00750 36-562, limits assumed). The test can be described thus: cell-based or functional assay.
Test [2] concerns the target urokinase-type plasminogen activator (u-PA) (human, UniProt P00749 21-431, limits assumed). The test can be described thus: cell-based or functional assay.

Sequence of tissue plasminogen activator (t-PA) (P00750 36-562 limits assumed): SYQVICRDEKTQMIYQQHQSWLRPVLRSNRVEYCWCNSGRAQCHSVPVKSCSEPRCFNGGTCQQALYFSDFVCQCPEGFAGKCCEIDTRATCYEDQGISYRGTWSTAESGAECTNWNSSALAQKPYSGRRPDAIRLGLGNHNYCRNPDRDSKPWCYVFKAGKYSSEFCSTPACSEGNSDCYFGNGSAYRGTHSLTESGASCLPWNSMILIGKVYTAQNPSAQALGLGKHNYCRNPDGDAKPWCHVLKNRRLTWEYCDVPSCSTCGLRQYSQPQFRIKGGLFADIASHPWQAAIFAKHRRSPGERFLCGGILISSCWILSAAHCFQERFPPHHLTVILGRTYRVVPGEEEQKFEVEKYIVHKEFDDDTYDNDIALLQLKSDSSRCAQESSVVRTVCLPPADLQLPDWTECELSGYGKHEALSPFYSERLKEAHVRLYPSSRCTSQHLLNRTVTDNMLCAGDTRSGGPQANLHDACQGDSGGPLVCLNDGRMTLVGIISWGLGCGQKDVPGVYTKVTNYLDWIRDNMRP

B1: peptide LGGSGRNAQVRLE (peptide)
peptide: LGGSGRNAQVRLE
For B1, in test [1], the “t-PA:u-PA Selectivity” value stood at 0.011. Also, the “u-PA:t-PA Selectivity” value in test [2] is 89.

B2: peptide (VII) of Table 1, FRGRK (peptide)
peptide: acyl-FRGRK-NH2
modifications: reading uncertain; also: acylated at the amino terminus (acyl group not given here)
With B2, in test [1], the “t-PA:u-PA Selectivity” value was determined as 78.

B3: peptide (I), native cleavage sequence from plasminogen (peptide)
peptide: KKSPGRVVGGSVAH
Consider B3, for which the “t-PA:u-PA Selectivity” value in test [1] amounted to 0.33. For the same molecule, the “u-PA:t-PA Selectivity” value in test [2] worked out at 3.

B4: peptide GSGKS (peptide)
peptide: acyl-GSGKS-NH2
modifications: reading uncertain; also: acylated at the amino terminus (acyl group not given here)
As for B4, the “t-PA:u-PA Selectivity” value in test [1] is 0.008. For the same molecule, in test [2], the “u-PA:t-PA Selectivity” value is 121.

B5: peptide LGGRGRSANAILE (peptide)
peptide: LGGRGRSANAILE
As to B5, in test [1], the “t-PA:u-PA Selectivity” value was found to be 5.2. In addition, the “u-PA:t-PA Selectivity” value in test [2] amounted to 0.019.

B6: peptide LGGYGRSANAILE (peptide)
peptide: LGGYGRSANAILE
B6: the “t-PA:u-PA Selectivity” value in test [1] turned out to be 5.7. For the same molecule, the “u-PA:t-PA Selectivity” value in test [2] stood at 0.018.

B7: peptide LGQRGRSANAILE (peptide)
peptide: LGQRGRSANAILE
Consider B7, for which the “t-PA:u-PA Selectivity” value in test [1] was found to be 19. Further, in test [2], the “u-PA:t-PA Selectivity” value was 0.005.

B8: peptide LGGSGRSANAILE (peptide)
peptide: LGGSGRSANAILE
Consider B8, for which, in test [1], the “t-PA:u-PA Selectivity” value amounted to 0.016. Moreover, in test [2], the “u-PA:t-PA Selectivity” value was 63.

B9: peptide (III) of Table 1, LGGSGERARGALE (peptide)
peptide: LGGSGERARGALE
Consider B9, for which the “t-PA:u-PA Selectivity” value in test [1] is 13.

B10: peptide SGRSA (peptide)
peptide: acyl-SGRSA-NH2
modifications: reading uncertain; also: acylated at the amino terminus (acyl group not given here)
B10: the “t-PA:u-PA Selectivity” value in test [1] stood at 0.05. For the same molecule, the “u-PA:t-PA Selectivity” value in test [2] was determined as 20.

B11: peptide (II) of Table 1, LGGSGQRGRKALE (peptide)
peptide: LGGSGQRGRKALE
Take B11: in test [1], the “t-PA:u-PA Selectivity” value was 47.

B12: peptide LGGSGRKASLSLE (peptide)
peptide: LGGSGRKASLSLE
Take B12: the “t-PA:u-PA Selectivity” value in test [1] was determined as 0.032. Further, the “u-PA:t-PA Selectivity” value in test [2] turned out to be 31.

B13: peptide (IV) of Table 1, LGGSGHYGRSGLE (peptide)
peptide: LGGSGHYGRSGLE
For the molecule B13, the “t-PA:u-PA Selectivity” value in test [1] came to 21.

B14: peptide (VI) of Table 1, RGRK (peptide)
peptide: acyl-RGRK-NH2
modifications: reading uncertain; also: acylated at the amino terminus (acyl group not given here)
With B14, the “t-PA:u-PA Selectivity” value in test [1] is 57.

B15: peptide SGRS (peptide)
peptide: acyl-SGRS-NH2
modifications: reading uncertain; also: acylated at the amino terminus (acyl group not given here)
On to B15, for which the “t-PA:u-PA Selectivity” value in test [1] worked out at 0.3. Also, the “u-PA:t-PA Selectivity” value in test [2] stood at 3.3.

B16: peptide (V) of Table 1, YGRS (peptide)
peptide: acyl-YGRS-NH2
modifications: reading uncertain; also: acylated at the amino terminus (acyl group not given here)
With B16, in test [1], the “t-PA:u-PA Selectivity” value worked out at 17.

B17: peptide SGKS (peptide)
peptide: acyl-SGKS-NH2
modifications: reading uncertain; also: acylated at the amino terminus (acyl group not given here)
Regarding B17, in test [1], the “t-PA:u-PA Selectivity” value was 0.04. In addition, the “u-PA:t-PA Selectivity” value in test [2] turned out to be 23.

B18: peptide LGGSGRSATRDLE (peptide)
peptide: LGGSGRSATRDLE
With B18, the “t-PA:u-PA Selectivity” value in test [1] came to 0.06. Also, the “u-PA:t-PA Selectivity” value in test [2] was found to be 16.
